pKd: −log10 of the molar value.
Columns and labels:
[1] = target: HLA-A*02:11; assay: IEDB peptide-MHC binding, purified MHC/direct/fluorescence; filed as Kd, often an IC50 or EC50 that approximates it; ≥ and ≤ were set here for values at or beyond the usual limits of such assays
[2] = target: HLA-A*69:01; assay: as above
[3] = target: HLA-A*02:16; assay: as above
[4] = target: HLA-B*57:01; assay: as above
[5] = target: HLA-A*68:02; assay: as above
[6] = target: HLA-A*02:19; assay: as above
[7] = target: HLA-B*18:01; assay: as above
[8] = target: HLA-A*02:01; assay: as above
[9] = target: HLA-B*15:01; assay: as above
[10] = target: HLA-B*27:03; assay: as above
[11] = target: HLA-B*46:01; assay: as above
[12] = target: HLA-B*51:01; assay: as above
[13] = target: HLA-A*02:03; assay: as above
[14] = target: HLA-A*02:12; assay: as above
[15] = target: HLA-A*03:01; assay: as above
[16] = target: HLA-B*15:17; assay: IEDB peptide-MHC binding, purified MHC/competitive/fluorescence; filed as Kd, often an IC50 or EC50 that approximates it; ≥ and ≤ were set here for values at or beyond the usual limits of such assays
[17] = target: HLA-B*48:01; assay: as above
[18] = target: HLA-B*07:02; assay: as above
[19] = target: HLA-C*07:02; assay: IEDB peptide-MHC binding, purified MHC/direct/fluorescence; filed as Kd, often an IC50 or EC50 that approximates it; ≥ and ≤ were set here for values at or beyond the usual limits of such assays; details: source organism: Entamoeba histolytica HM-1:IMSS
[20] = target: HLA-A*24:03; assay: as above
[21] = target: HLA-B*39:01; assay: as above
[22] = target: HLA-A*26:01; assay: as above
[23] = target: HLA-A*32:01; assay: IEDB peptide-MHC binding, purified MHC/competitive/radioactivity; filed as Kd, often an IC50 or EC50 that approximates it; ≥ and ≤ were set here for values at or beyond the usual limits of such assays; details: source organism: Mammarenavirus machupoense
[24] = target: HLA-A*29:02; assay: as above; details: source organism: Mammarenavirus machupoense
[25] = target: HLA-A*30:01; assay: as above; details: source organism: Mammarenavirus machupoense
[26] = target: HLA-A*30:02; assay: as above; details: source organism: Mammarenavirus machupoense
[27] = target: HLA-A*01:01; assay: as above; details: source organism: Mammarenavirus machupoense
[28] = target: HLA-B*08:02; assay: IEDB peptide-MHC binding, purified MHC/direct/fluorescence; filed as Kd, often an IC50 or EC50 that approximates it; ≥ and ≤ were set here for values at or beyond the usual limits of such assays; details: source organism: Orthomarburgvirus marburgense
[29] = target: HLA-A*31:01; assay: as above; details: source organism: Marburg virus - Musoke, Kenya, 1980
[30] = target: HLA-B*27:05; assay: as above; details: source organism: Marburg virus - Musoke, Kenya, 1980
[31] = target: HLA-B*40:01; assay: as above; details: source organism: Marburg virus - Musoke, Kenya, 1980
[32] = target: HLA-A*11:01; assay: as above; details: source organism: Marburg virus - Musoke, Kenya, 1980
[33] = target: HLA-B*58:01; assay: as above; details: source organism: Marburg virus - Musoke, Kenya, 1980
[34] = target: HLA-A*01:01; assay: as above; details: source organism: Marburg virus - Musoke, Kenya, 1980
[35] = target: HLA-A*69:01; assay: IEDB peptide-MHC binding, purified MHC/competitive/fluorescence; filed as Kd, often an IC50 or EC50 that approximates it; ≥ and ≤ were set here for values at or beyond the usual limits of such assays; details: source organism: Orthomarburgvirus marburgense
[36] = target: HLA-A*02:01; assay: as above; details: source organism: Orthomarburgvirus marburgense
[37] = target: HLA-A*02:06; assay: as above; details: source organism: Orthomarburgvirus marburgense
[38] = target: HLA-B*39:01; assay: as above; details: source organism: Escherichia coli O157:H7 str. EDL933
[39] = target: HLA-B*15:01; assay: as above; details: source organism: Escherichia coli O157:H7 str. EDL933
[40] = target: HLA-B*08:01; assay: as above; details: source organism: Escherichia coli O157:H7 str. EDL933
[41] = source organism: Rickettsia sibirica 246
[42] = source organism: Salmonella enterica subsp. enterica serovar Typhimurium
[43] = source organism: Mammarenavirus machupoense
[44] = source organism: Marburg virus - Musoke, Kenya, 1980
[45] = source organism: Orthomarburgvirus marburgense
[46] = source organism: Encephalitozoon cuniculi GB-M1

APVESMALF
pKd [1, 41]: ≤ 4.70
pKd [2, 41]: ≤ 4.70
pKd [3, 41]: ≤ 4.70
pKd [4, 41]: ≤ 4.70
pKd [5, 41]: ≤ 4.70
pKd [6, 41]: ≤ 4.70
pKd [7, 41]: ≤ 4.70
pKd [8, 41]: ≤ 4.70
pKd [9, 41]: ≤ 4.70
pKd [10, 41]: ≤ 4.70
pKd [11, 41]: ≤ 4.70
pKd [12, 41]: ≤ 4.70
pKd [13, 41]: ≤ 4.70
pKd [14, 41]: ≤ 4.70
pKd [15, 41]: ≤ 4.70
pKd [16, 41]: 4.82

AQELVGHQL
pKd ([17]; source organism: Escherichia coli O139:H28 str. E24377A): ≤ 4.70

FPSSSYRRPV
pKd ([18]; source organism: Influenza A virus (A/Fort Monmouth/1/1947-mouse adapted(H1N1))): 8.80

FQFTLHWEL
pKd [19]: 5.69
pKd ([17]; source organism: Entamoeba histolytica HM-1:IMSS): 6.14

GQAARDKHL
pKd ([17]; source organism: Burkholderia vietnamiensis G4): ≤ 4.70

LAMLVLHQV
pKd [20, 42]: ≤ 4.70
pKd [21, 42]: ≤ 4.70
pKd [4, 42]: ≤ 4.70
pKd [7, 42]: ≤ 4.70
pKd [9, 42]: ≤ 4.70
pKd [10, 42]: ≤ 4.70
pKd [11, 42]: ≤ 4.70
pKd [12, 42]: 6.38
pKd [22, 42]: ≤ 4.70
pKd [15, 42]: ≤ 4.70

LITEQFLCY
pKd [23]: ≤ 4.60
pKd [24]: 8.88
pKd [25]: 5.20
pKd [26]: 5.73
pKd [27]: 7.19
pKd [1, 43]: ≤ 4.70
pKd [2, 43]: ≤ 4.70
pKd [21, 43]: ≤ 4.70
pKd [3, 43]: ≤ 4.70
pKd [4, 43]: ≤ 4.70
pKd [5, 43]: ≤ 4.70
pKd [6, 43]: ≤ 4.70
pKd [7, 43]: ≤ 4.70
pKd [8, 43]: ≤ 4.70
pKd [10, 43]: ≤ 4.70
pKd [12, 43]: ≤ 4.70
pKd [22, 43]: ≤ 4.70
pKd [13, 43]: ≤ 4.70
pKd [14, 43]: ≤ 4.70

LYKTIVNIW
pKd [20, 44]: 6.80
pKd [28]: ≤ 4.70
pKd [29]: ≤ 4.70
pKd [21, 45]: ≤ 4.70
pKd [4, 44]: ≤ 4.70
pKd [7, 44]: ≤ 4.70
pKd [9, 44]: ≤ 4.70
pKd [30]: ≤ 4.70
pKd [31]: ≤ 4.70
pKd [11, 44]: ≤ 4.70
pKd [22, 45]: ≤ 4.70
pKd [32]: ≤ 4.70
pKd [33]: ≤ 4.70
pKd [15, 44]: ≤ 4.70
pKd [34]: ≤ 4.70
pKd [35]: 5.80
pKd [36]: 7.29
pKd [17, 45]: ≤ 4.70
pKd [16, 45]: ≤ 4.70
pKd [37]: 6.96

MPFDPSELV
pKd [1, 46]: ≤ 4.70
pKd [20, 46]: ≤ 4.70
pKd [3, 46]: ≤ 4.70
pKd [4, 46]: ≤ 4.70
pKd [6, 46]: ≤ 4.70
pKd [7, 46]: ≤ 4.70
pKd [8, 46]: ≤ 4.70
pKd [9, 46]: ≤ 4.70
pKd [10, 46]: ≤ 4.70
pKd [11, 46]: ≤ 4.70
pKd [12, 46]: 7.13
pKd [22, 46]: ≤ 4.70
pKd [13, 46]: ≤ 4.70
pKd [14, 46]: ≤ 4.70
pKd [15, 46]: ≤ 4.70

MQRSGMLSL
pKd [38]: 7.21
pKd [39]: 7.10
pKd [40]: 6.70
pKd ([18]; source organism: Escherichia coli O157:H7 str. EDL933): 8.15

Reference: the Immune Epitope Database (IEDB)
